Reference: publication PMC6549151 (2019)

Target: GPIIb/IIIa (Homo sapiens, UniProt P08514)
Experiment: spectrofluorometry titration

B1: RusPep (Rusvikunin-II peptide) (peptide)
chain: PESGRCRGHLRRIYYNLES
B1 gave a Kd of 1.6 µM.
